Data set [1] deals with the molecule itself. Put plainly: native gel or EMSA; raf1 from Synechocystis co-expressed with rbcL genes in E. coli (or rbcL alone); crude extracts separated by native PAGE and probed with anti-RbcL or anti-RAF1 antibodies.
For data set [2], the target named is T1, RbcL from Thermosynechococcus elongatus, made in E. coli (Thermosynechococcus vestitus (strain …, UniProt Q8DIS5)).
T1 chain: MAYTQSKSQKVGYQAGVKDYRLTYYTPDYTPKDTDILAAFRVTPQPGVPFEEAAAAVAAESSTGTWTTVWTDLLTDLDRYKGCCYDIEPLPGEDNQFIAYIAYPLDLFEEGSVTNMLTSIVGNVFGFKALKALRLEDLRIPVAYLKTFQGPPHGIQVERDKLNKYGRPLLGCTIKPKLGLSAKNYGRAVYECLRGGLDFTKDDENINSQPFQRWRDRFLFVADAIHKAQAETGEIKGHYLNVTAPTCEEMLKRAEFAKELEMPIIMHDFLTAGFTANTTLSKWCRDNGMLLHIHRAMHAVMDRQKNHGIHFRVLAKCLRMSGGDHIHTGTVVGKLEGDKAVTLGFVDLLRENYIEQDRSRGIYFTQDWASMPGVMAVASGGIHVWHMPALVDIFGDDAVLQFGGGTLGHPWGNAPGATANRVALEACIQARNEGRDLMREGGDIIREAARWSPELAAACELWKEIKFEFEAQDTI
The data set can be described thus: co-expression in E. coli with co-purification of the complex; native PAGE.

B1: RbcL from Thermosynechococcus elongatus, made in E. coli (natural protein, UniProt Q8DIS5 1-475, looked up)
chain: MAYTQSKSQKVGYQAGVKDYRLTYYTPDYTPKDTDILAAFRVTPQPGVPFEEAAAAVAAESSTGTWTTVWTDLLTDLDRYKGCCYDIEPLPGEDNQFIAYIAYPLDLFEEGSVTNMLTSIVGNVFGFKALKALRLEDLRIPVAYLKTFQGPPHGIQVERDKLNKYGRPLLGCTIKPKLGLSAKNYGRAVYECLRGGLDFTKDDENINSQPFQRWRDRFLFVADAIHKAQAETGEIKGHYLNVTAPTCEEMLKRAEFAKELEMPIIMHDFLTAGFTANTTLSKWCRDNGMLLHIHRAMHAVMDRQKNHGIHFRVLAKCLRMSGGDHIHTGTVVGKLEGDKAVTLGFVDLLRENYIEQDRSRGIYFTQDWASMPGVMAVASGGIHVWHMPALVDIFGDDAVLQFGGGTLGHPWGNAPGATANRVALEACIQARNEGRDLMREGGDIIREAARWSPELAAACELWKEIKFEFEAQDTI
notes: Ribulose-1,5-bisphosphate carboxylase/oxygenase large subunit, Thermosynechococcus elongatus; rbcL gene in the previously described pUC18rbcL plasmid (Tarnawski et al. 2008); also called RbcLTe; Te; source: E. coli Rosetta, expressed alone or co-expressed with raf1 or rbcX from Synechocystis, in crude extract; complexes purified (ammonium sulfate, Q-Sepharose)
In general, stoichiometry N refers to a count of units in the complex or per binding partner. Turning to B1, the “stoichiometry N” value in data set [1] is 8.

B2: RAF1 from Synechocystis sp. PCC 6803, untagged, made in E. coli (protein)
chain: MTHSPESNPTVSAAEAAELIRSLLHKEGTWVDWGKKCQQLQKAGYGAEEIFEQSGFQKVQQNLVIVASQVYESLVKQGIDETVLSYYRGPKSDVLYELRILNHQQRAIAAVEAQQKNLAADEAKELAKAFQEFGYLSQLPEGFTDHPGDALAYQCWKLARQKKNLPERTRLIVKGLKFAHSPNARQAIEKLLTDLTAQPSRKAPLVPVFRLEEDQEAARLIPVAGTFPLQPQAVQAVQSLEQVEPFGLVSYQGEGAVVPVPQWQAILTAEDPVAIFCPAGQVSESLARKDEQVLVVVDRSKKIWNDGSYFLLNQGETVAIQWCETEPEREILAQVVLVLRPKKIFDANNLREPWQMDD
Regarding B2, in data set [2], the binding result was “binds”.

(Values after PMC5387032 (Photosynthesis Research, 2017).)
